From PMC7541222, “Novel single-domain antibodies against the EGFR domain III epitope exhibit the anti-tumor effect” (Journal of Translational Medicine, 2020)

B1: anti-EGFR single-domain antibody aEG6B2 (purified) (VHH)
VHH: QVQLLESGGGLVQPGGSLRLSCAASGFNVNPKYMTWVRQAPGKGLEWVSSIRSPGGSTYYADSVKGRFTISRDNSKNTLYLQMNSLRAEDTAVYYCASVSRDEKYMRFWGQGTLVTVSS
notes: fully human VH domain on the V3-23/D47 framework with diversified CDR1-3; Fully human VH-only single-domain antibody (about 15 kDa), selected from the Source BioScience human domain antibody library; subcloned NcoI/NotI into pET22b(+); also called anti-EGFR sdAb; source: E. coli BL21 (DE3), pET22b(+), purified (Ni-NTA)
B2: anti-EGFR single-domain antibody aEG2E12 (purified) (VHH)
VHH: QVQLLESGGGLVQPGGSLRLSCAASGYSSNNEFMAWVRQAPGKGLEWVSAISTRNGSTYYADSVKGRFTISRDNSKNTLYLQMNSLRAEDTAVYYCAGVSYRRPQQLKYWGQGTLVTVSS
notes: as for B1
B3: anti-EGFR single-domain antibody aEG4D9 (purified) (VHH)
VHH: QVQLLESGGGLVQPGGSLRLSCAASGDMLSPDNMTWVRQAPGKGLEWVSTIHKTDGSTYYADSVKGRFTISRDNSKNTLYLQMNSLRAEDTAVYYCAGLRSRGLSSKYLEYWGQGTLVTVSS
notes: as for B1
B4: anti-EGFR single-domain antibody aEG2C7 (purified) (VHH)
VHH: QVQLLESGGGLVQPGGSLRLSCAASGFTFNNEIMAWVRQAPGKGLEWVSSIAANNGSTYYADSVKGRFTISRDNSKNTLYLQMNSLRAEDTAVYYCARYAAEPHTYSMGNKSLRYWGQGTLVTVSS
notes: as for B1
B5: anti-EGFR single-domain antibody aEG1B4 (purified) (VHH)
VHH: QVQLLESGGGLVQPGGSLRLSCAASGVNVSNEVMSWVRQAPGKGLEWVSTIANHSGSTYYADSVKGRFTISRDNSKNTLYLQMNSLRAEDTAVYYCATLYSGATKQLEYWGQGTLVTVSS
notes: as for B1
B6: aEG6B2 displayed on phage (phage clone) (VHH)
VHH: B1 VHH
notes: detected by anti-M13-HRP; source: E. coli TG1, phagemid pR2, rescued with M13 helper phage, phage clone
B7: aEG2E12 displayed on phage (phage clone) (VHH)
VHH: B2 VHH
notes: as for B6
B8: aEG4D9 displayed on phage (phage clone) (VHH)
VHH: B3 VHH
notes: as for B6
B9: aEG2C7 displayed on phage (phage clone) (VHH)
VHH: B4 VHH
notes: as for B6
B10: aEG1B4 displayed on phage (phage clone) (VHH)
VHH: B5 VHH
notes: as for B6

target: T1, EGFR on human cancer cells A549, MCF-7 and DU145 (Homo sapiens, UniProt P00533); experiment: flow cytometry on cells; live cells (A549, MCF-7, DU145) in ice-cold PBS with BSA incubated with purified sdAbs; detected with protein A-FITC; settings: one partner purified
T1 construct: Epidermal growth factor receptor (EGFR, HER1, ERBB1), endogenous on the surface of human cancer cell lines; also called HER1; ERBB1; source: endogenous, on live A549, MCF-7 and DU145 cells

**Q.** Does B1 bind?
**A.** Result: binds

**Q.** Does B2 bind?
**A.** Result: binds

**Q.** Does B3 bind?
**A.** Result: binds

**Q.** Does B4 bind?
**A.** Result: binds

**Q.** Does B5 bind?
**A.** Result: binds

target: T2, EndoF1 (Elizabethkingia meningoseptica (assumed), UniProt P36911); experiment: ELISA; wells of 96-well plates coated with EGFR protein fragment or unrelated antigens; purified sdAbs added; protein A-HRP, TMB, absorbance at 450 nm; settings: both partners purified
T2 construct: EndoF1, unrelated antigen used as negative control
T2 sequence (P36911 51-339): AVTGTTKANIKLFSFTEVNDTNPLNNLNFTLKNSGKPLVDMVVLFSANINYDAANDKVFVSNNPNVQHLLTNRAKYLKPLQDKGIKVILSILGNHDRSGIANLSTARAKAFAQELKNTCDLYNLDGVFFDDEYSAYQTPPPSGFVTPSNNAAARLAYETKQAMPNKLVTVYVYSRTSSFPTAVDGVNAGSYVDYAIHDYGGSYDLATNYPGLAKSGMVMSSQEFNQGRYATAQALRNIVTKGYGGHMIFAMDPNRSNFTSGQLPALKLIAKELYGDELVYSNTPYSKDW

**Q.** Does B1 bind?
**A.** Result: no binding

**Q.** Does B2 bind?
**A.** Result: no binding

**Q.** Does B3 bind?
**A.** Result: no binding

**Q.** Does B4 bind?
**A.** Result: no binding

**Q.** Does B5 bind?
**A.** Result: no binding

target: T3, BMP2 (Homo sapiens (assumed), UniProt P12643); experiment: as above; settings: both partners purified
T3 construct: BMP2, unrelated antigen used as negative control
T3 sequence (P12643 24-396): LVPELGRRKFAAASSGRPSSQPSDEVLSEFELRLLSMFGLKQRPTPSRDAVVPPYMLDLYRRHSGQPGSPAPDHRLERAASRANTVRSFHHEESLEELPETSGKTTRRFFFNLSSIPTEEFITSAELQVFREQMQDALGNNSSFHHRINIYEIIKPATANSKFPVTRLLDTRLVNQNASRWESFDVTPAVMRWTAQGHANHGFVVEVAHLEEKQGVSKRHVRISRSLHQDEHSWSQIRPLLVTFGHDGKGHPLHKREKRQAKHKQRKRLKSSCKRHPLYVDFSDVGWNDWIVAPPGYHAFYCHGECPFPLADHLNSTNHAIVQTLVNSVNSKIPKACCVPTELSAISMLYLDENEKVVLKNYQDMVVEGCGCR

**Q.** Does B1 bind?
**A.** Result: no binding

**Q.** Does B2 bind?
**A.** Result: no binding

**Q.** Does B3 bind?
**A.** Result: no binding

**Q.** Does B4 bind?
**A.** Result: no binding

**Q.** Does B5 bind?
**A.** Result: no binding

target: T4, FGF21 (Homo sapiens (assumed), UniProt Q9NSA1); experiment: as above; settings: both partners purified
T4 construct: FGF21, unrelated antigen used as negative control
T4 sequence (Q9NSA1 29-209): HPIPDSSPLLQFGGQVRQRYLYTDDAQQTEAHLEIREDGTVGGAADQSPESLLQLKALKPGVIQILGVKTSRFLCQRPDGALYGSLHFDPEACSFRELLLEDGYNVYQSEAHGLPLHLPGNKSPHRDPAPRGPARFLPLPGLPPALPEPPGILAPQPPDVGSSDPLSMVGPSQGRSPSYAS

**Q.** Does B1 bind?
**A.** Result: no binding

**Q.** Does B2 bind?
**A.** Result: no binding

**Q.** Does B3 bind?
**A.** Result: no binding

**Q.** Does B4 bind?
**A.** Result: no binding

**Q.** Does B5 bind?
**A.** Result: no binding

target: T2, EndoF1; experiment: ELISA; monoclonal phage ELISA: wells of 96-well plates coated with EGFR protein fragment or unrelated antigens, blocked with 2% BSA; phage clones added; anti-M13-HRP, TMB, absorbance at 450 nm; settings: one partner purified

**Q.** Does B6 bind?
**A.** Result: no binding

**Q.** Does B7 bind?
**A.** Result: no binding

**Q.** Does B8 bind?
**A.** Result: no binding

**Q.** Does B9 bind?
**A.** Result: no binding

**Q.** Does B10 bind?
**A.** Result: no binding

target: T3, BMP2; experiment: as above; settings: one partner purified

**Q.** Does B6 bind?
**A.** Result: no binding

**Q.** Does B7 bind?
**A.** Result: no binding

**Q.** Does B8 bind?
**A.** Result: no binding

**Q.** Does B9 bind?
**A.** Result: no binding

**Q.** Does B10 bind?
**A.** Result: no binding

target: T4, FGF21; experiment: as above; settings: one partner purified

**Q.** Does B6 bind?
**A.** Result: no binding

**Q.** Does B7 bind?
**A.** Result: no binding

**Q.** Does B8 bind?
**A.** Result: no binding

**Q.** Does B9 bind?
**A.** Result: no binding

**Q.** Does B10 bind?
**A.** Result: no binding

target: T5, EGFR complete extracellular domain protein (Homo sapiens (assumed), UniProt P00533); experiment: far-Western, overlay or dot blot; Western blotting: 0.5 ug EGFR complete extracellular domain separated by SDS-PAGE, transferred to PVDF; blot incubated with the sdAbs, then protein A-HRP, chemiluminescence; settings: both partners purified
T5 construct: Epidermal growth factor receptor (EGFR, HER1, ERBB1), complete extracellular domain, bought; also called EGFR complete extracellular fragment; EGFR-ECD; source: bought: Shanghai Bootech BioSci. and Technol

**Q.** Does B1 bind?
**A.** Result: binds

**Q.** Does B2 bind?
**A.** Result: binds

**Q.** Does B3 bind?
**A.** Result: binds

**Q.** Does B4 bind?
**A.** Result: binds

**Q.** Does B5 bind?
**A.** Result: binds
